± gives the uncertainty stated by the source.
B1: Histidine--tRNA ligase, cytoplasmic, residues 8 to 45; numbered along this chain, P12081 (parent)
chain: EELVKLQGERVRGLKQQKASAELIEEEVAKLLKLKAQL
B2: Poly(rC)-binding protein 1, residues 278 to 350; numbered along this chain, Q15365 (parent)
chain: TQTTHELTIPNNLIGCIIGRQGANINEIRQMSGAQIKIANPVEGSSGRQVTITGSAASISLAQYLINARLSSE

Variants of: B1
Test: abundance fitness (aPCA) (normalised: wild type 0, dead -1); higher = more abundant; growth selection in yeast, the domain comes from the species named
Conditions: Homo sapiens

Abundance fitness, by site and new letter:
E27: I -1.47 ± 0.15 | M -0.874 ± 0.16 | R -0.741 ± 0.084 | N -0.079 ± 0.078 | H -0.436 ± 0.093 | W -1.11 ± 0.13 | P -0.214 ± 0.091 | A -0.108 ± 0.089 | S -0.291 ± 0.077 | T -0.798 ± 0.085 | K -0.649 ± 0.15 | V -1.1 ± 0.093
L38: K 0.14 ± 0.25 | H -0.012 ± 0.15 | I -0.389 ± 0.11 | M 0.193 ± 0.13 | E 0.204 ± 0.11 | T 0.034 ± 0.094 | V -0.209 ± 0.18 | S 0.009 ± 0.093 | A 0.15 ± 0.14 | P -0.026 ± 0.08 | F -0.526 ± 0.12 | W -0.154 ± 0.2 | R -0.067 ± 0.12 | D 0.003 ± 0.26 | Q 0.166 ± 0.1 | N -0.05 ± 0.19
K35: P 0.394 ± 0.087 | Y -0.518 ± 0.098 | G 0.78 ± 0.098 | E 0.193 ± 0.12 | M 0.277 ± 0.11 | Q 0.414 ± 0.14 | F -0.893 ± 0.11 | N 0.597 ± 0.12 | V 0.271 ± 0.086 | L -0.051 ± 0.073 | R -0.005 ± 0.077 | A 0.627 ± 0.1 | W -0.936 ± 0.26 | C 0.383 ± 0.09 | H -0.532 ± 0.091 | T 0.392 ± 0.076 | S 0.611 ± 0.07 | D 0.227 ± 0.094 | I -0.335 ± 0.096
E25: P -0.208 ± 0.095 | D 0.012 ± 0.097 | M -0.184 ± 0.11 | Q 0.071 ± 0.097 | L -0.484 ± 0.098 | H 0 ± 0.09 | T -0.009 ± 0.081 | N 0.055 ± 0.13 | I -0.621 ± 0.13 | R -0.064 ± 0.069 | K -0.001 ± 0.11 | C -0.331 ± 0.16 | A 0.128 ± 0.091 | W -0.586 ± 0.11 | S 0.032 ± 0.073 | G -0.052 ± 0.077
E26: C -0.024 ± 0.085 | K 0.184 ± 0.092 | A 0.263 ± 0.087 | L -0.046 ± 0.067 | M 0.168 ± 0.1 | V -0.116 ± 0.084 | D -0.009 ± 0.096 | F -0.038 ± 0.083 | W -0.594 ± 0.12 | Q 0.139 ± 0.093 | P -0.024 ± 0.084 | S 0.184 ± 0.074 | H 0.284 ± 0.12 | G -0.146 ± 0.11 | R 0.1 ± 0.08 | I 0.086 ± 0.13
L23: M 0.243 ± 0.13 | G -0.143 ± 0.083 | R -0.001 ± 0.073 | Q 0.262 ± 0.1 | T 0.071 ± 0.082 | V 0.2 ± 0.082 | D -0.072 ± 0.12 | A -0.037 ± 0.073 | S -0.266 ± 0.085 | Y -0.358 ± 0.091 | K 0.045 ± 0.091 | N -0.04 ± 0.11 | P -0.004 ± 0.086 | H -0.075 ± 0.11 | I 0.188 ± 0.12
K30: A -0.04 ± 0.081 | I -0.232 ± 0.098 | T -0.246 ± 0.078 | N -0.119 ± 0.084 | W -0.639 ± 0.12 | F -0.722 ± 0.097 | G -0.364 ± 0.11 | D 0.072 ± 0.15 | C -0.411 ± 0.08 | H -0.247 ± 0.097 | L -0.211 ± 0.076 | M -0.234 ± 0.13 | V -0.136 ± 0.094 | Q -0.102 ± 0.12 | S -0.218 ± 0.069 | Y -0.484 ± 0.11 | P -0.219 ± 0.074 | R -0.204 ± 0.079 | E 0.1 ± 0.09
A21: S 0.072 ± 0.096 | C -0.202 ± 0.17 | N 0.119 ± 0.13 | L -0.058 ± 0.096 | H -0.004 ± 0.086 | I -0.101 ± 0.12 | Q 0.039 ± 0.13 | F -0.075 ± 0.11 | Y -0.208 ± 0.11 | V -0.161 ± 0.082 | M 0.116 ± 0.12 | E 0.085 ± 0.2 | K 0.055 ± 0.21 | D 0.13 ± 0.097 | T -0.006 ± 0.11 | R -0.086 ± 0.071 | P 0.184 ± 0.072 | G -0.151 ± 0.078 | W -0.49 ± 0.12
A29: I -0.618 ± 0.11 | N -0.183 ± 0.081 | C -0.415 ± 0.093 | V -0.277 ± 0.084 | T -0.26 ± 0.1 | D 0.106 ± 0.11 | M -0.069 ± 0.11 | W -0.804 ± 0.17 | K -0.299 ± 0.17 | L -0.462 ± 0.083 | H -0.265 ± 0.093 | P -0.37 ± 0.09 | G -0.092 ± 0.09 | Q 0.07 ± 0.11 | F -0.8 ± 0.11 | R -0.189 ± 0.076
Q37: F -0.693 ± 0.16 | Y -0.532 ± 0.1 | T -0.113 ± 0.075 | M -0.02 ± 0.11 | D 0.119 ± 0.12 | I -0.29 ± 0.075 | V -0.173 ± 0.093 | C -0.057 ± 0.12 | N -0.04 ± 0.11 | G 0.191 ± 0.089 | E 0.28 ± 0.16 | H -0.224 ± 0.097 | K 0.041 ± 0.091 | R -0.143 ± 0.074 | L -0.164 ± 0.072 | S 0.065 ± 0.076 | A 0.152 ± 0.089 | P 0.083 ± 0.077
K33: H -0.039 ± 0.084 | V -0.436 ± 0.083 | F -0.338 ± 0.11 | I -0.407 ± 0.14 | N -0.203 ± 0.26 | R -0.109 ± 0.075 | A -0.081 ± 0.11 | G -0.147 ± 0.089 | C -0.451 ± 0.093 | Y -0.313 ± 0.1 | T -0.093 ± 0.095 | E 0.226 ± 0.13 | P -0.056 ± 0.097 | L -0.34 ± 0.083 | Q 0.037 ± 0.1 | S 0.071 ± 0.074
L31: S 0.026 ± 0.076 | A -0.084 ± 0.1 | G -0.044 ± 0.093 | T -0.058 ± 0.093 | Y -0.199 ± 0.1 | H -0.144 ± 0.11 | F -0.397 ± 0.084 | W -0.172 ± 0.093 | V -0.436 ± 0.073 | P 0.123 ± 0.088 | Q 0.087 ± 0.12 | M -0.338 ± 0.12 | C -0.187 ± 0.097 | R -0.126 ± 0.07 | I -0.426 ± 0.087 | E 0.257 ± 0.09 | D 0.222 ± 0.094 | K 0.002 ± 0.098 | N 0.22 ± 0.11
S20: G -0.022 ± 0.091 | R -0.019 ± 0.079 | W -1.1 ± 0.1 | H -0.128 ± 0.11 | M -0.431 ± 0.094 | Q -0.057 ± 0.1 | L -0.781 ± 0.1 | K -0.118 ± 0.083 | F -1.09 ± 0.1 | N 0.026 ± 0.081 | V -0.693 ± 0.11 | Y -0.945 ± 0.17 | T -0.132 ± 0.079
E22: D 0.04 ± 0.1 | L -0.149 ± 0.081 | R -0.023 ± 0.079 | G -0.03 ± 0.096 | A 0.069 ± 0.081 | W -0.577 ± 0.16 | I -0.156 ± 0.1 | Y -0.288 ± 0.11 | T 0.091 ± 0.08 | H -0.156 ± 0.14 | K 0.075 ± 0.12 | M -0.046 ± 0.094 | V 0.052 ± 0.1 | C -0.107 ± 0.096 | N 0.055 ± 0.12 | F -0.311 ± 0.091 | P -0.007 ± 0.1 | Q 0.13 ± 0.1
L32: K 0.105 ± 0.11 | T 0.117 ± 0.13 | G 0.121 ± 0.091 | W -0.098 ± 0.1 | R 0.096 ± 0.079 | I -0.093 ± 0.1 | V -0.076 ± 0.083 | S 0.112 ± 0.09 | H 0.08 ± 0.087 | P 0.098 ± 0.11 | A 0.227 ± 0.089 | M 0.206 ± 0.087 | C 0.116 ± 0.096 | Q 0.201 ± 0.095 | D 0.174 ± 0.1 | N 0.247 ± 0.091 | F -0.289 ± 0.076
I24: S -0.171 ± 0.08 | L 0.03 ± 0.072 | W -1.01 ± 0.31 | Q 0.163 ± 0.09 | V -0.035 ± 0.078 | A -0.027 ± 0.078 | Y 0.131 ± 0.18 | G -0.068 ± 0.085 | M -0.03 ± 0.077 | R -0.184 ± 0.081 | N -0.137 ± 0.1 | H 0.169 ± 0.1 | D 0.055 ± 0.14 | K 0 ± 0.09 | F 0.069 ± 0.091 | T -0.012 ± 0.088 | E -0.151 ± 0.15
V28: S 0.094 ± 0.08 | A 0.177 ± 0.095 | R -0.027 ± 0.084 | C -0.076 ± 0.093 | I -0.303 ± 0.09 | K 0.107 ± 0.14 | L -0.271 ± 0.076 | M 0.06 ± 0.1 | Q 0.366 ± 0.1 | T 0.159 ± 0.099 | H -0.012 ± 0.1 | N 0.081 ± 0.098 | F -0.378 ± 0.078 | D 0.152 ± 0.11 | G -0.195 ± 0.11 | E 0.316 ± 0.13 | P -0.119 ± 0.1
L34: F -0.148 ± 0.095 | Q 0.061 ± 0.11 | A -0.054 ± 0.094 | P 0.209 ± 0.089 | Y -0.093 ± 0.093 | K -0.1 ± 0.094 | V -0.064 ± 0.093 | D 0.05 ± 0.12 | T -0.066 ± 0.091 | E 0.083 ± 0.084 | R -0.151 ± 0.097 | W -0.237 ± 0.088 | G -0.128 ± 0.079 | C -0.197 ± 0.078 | I -0.176 ± 0.085 | M 0.121 ± 0.12 | H -0.06 ± 0.097

Variants of: B2
Test: as above
Conditions: Homo sapiens

Abundance fitness, by site and new letter:
T1: A -0.086 ± 0.066 | C -0.218 ± 0.12 | I 0.094 ± 0.084 | Y -0.072 ± 0.16 | K -0.191 ± 0.12 | M 0.058 ± 0.088 | G -0.02 ± 0.048 | S 0.012 ± 0.061 | D 0.167 ± 0.097 | V 0.061 ± 0.058 | P -0.141 ± 0.15 | E 0.106 ± 0.085 | W -0.287 ± 0.083 | N 0.194 ± 0.12 | Q -0.559 ± 0.24
Q2: C -0.263 ± 0.064 | P -0.128 ± 0.079 | T 0.142 ± 0.051 | Y 0.082 ± 0.087 | V 0.015 ± 0.043 | D 0.052 ± 0.073 | R 0.054 ± 0.037 | A -0.177 ± 0.041 | G 0.031 ± 0.035 | M 0.075 ± 0.054 | W 0.017 ± 0.04 | E -0.077 ± 0.044 | K 0.101 ± 0.046 | I 0.118 ± 0.093
T3: D 0.053 ± 0.091 | E 0.285 ± 0.052 | G 0.167 ± 0.033 | C -0.009 ± 0.09 | A 0.048 ± 0.05

From the Human Domainome abundance scans (Beltran et al. 2025)
